The values that follow come from US20210238292A1 (VACCINEX, published 2021).

For test [1], the target named is T1, Human CCR8-ECD-Fc (human).
T1 construct: also called HuCCR8-ECD-Fc; huCC8-ECD-Fc
T1 chain: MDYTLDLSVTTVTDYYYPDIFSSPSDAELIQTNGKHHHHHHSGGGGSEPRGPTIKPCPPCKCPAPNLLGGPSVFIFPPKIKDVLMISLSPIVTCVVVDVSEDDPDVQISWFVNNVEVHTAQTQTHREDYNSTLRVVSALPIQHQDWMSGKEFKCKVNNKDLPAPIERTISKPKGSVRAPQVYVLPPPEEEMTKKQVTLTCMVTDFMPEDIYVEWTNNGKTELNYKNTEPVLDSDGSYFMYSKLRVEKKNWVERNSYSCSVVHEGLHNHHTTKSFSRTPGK
The test can be described thus: binding to HuCCR8-ECD-Fc protein, OD450-570nm.

For test [2], the target named is T2, cynomolgus monkey CCR8 expressed on cells (cynomolgus monkey, UniProt G7NYJ2 1-355).
T2 construct: whole, on cells; also called cyno CCR8; CyCCR8
The test can be described thus: on-cell affinity, flow cytometry on 293T cells expressing cyno CCR8.

The target in test [3] is T3, human CCR8 (C-C chemokine receptor type 8) expressed on cells (human, UniProt P51685 1-355).
T3 construct: also called HuCCR8
Put plainly: on-cell affinity, flow cytometry on 293T cells expressing human CCR8.

The target in test [4] is T3, human CCR8 (C-C chemokine receptor type …). The test can be described thus: flow cytometry, HuCCR8-293T cells, fold geomean over secondary alone.
Test [5] has as its target T4, mouse CCR8 expressed on 293T cells (mouse, UniProt P56484 1-353).
T4 construct: whole, on cells
T4 sequence (looked up): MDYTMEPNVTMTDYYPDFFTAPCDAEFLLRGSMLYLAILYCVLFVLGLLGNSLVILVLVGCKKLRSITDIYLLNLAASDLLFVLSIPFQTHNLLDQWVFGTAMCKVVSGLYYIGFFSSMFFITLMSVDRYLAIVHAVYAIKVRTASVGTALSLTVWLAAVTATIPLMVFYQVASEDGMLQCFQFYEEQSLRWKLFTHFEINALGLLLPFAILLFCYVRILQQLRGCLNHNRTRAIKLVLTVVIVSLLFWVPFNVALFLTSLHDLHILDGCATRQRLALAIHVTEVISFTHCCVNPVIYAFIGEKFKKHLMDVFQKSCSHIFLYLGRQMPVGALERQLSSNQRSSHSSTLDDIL
The test can be described thus: flow cytometry, MoCCR8-293T cells, fold geomean over secondary alone.

Test [6] has as its target T5, amyloid precursor-like protein 2 (APLP2) (UniProt Q06481 32-763, limits assumed).
T5 construct: whole, on cells
The test can be described thus: on-cell Kd, antibody titration on cells expressing APLP2, flow cytometry.

Test [7] addresses T3, human CCR8 (C-C chemokine receptor type …). Put plainly: flow cytometry competition on Raji-CCR8 cells; competitor: fluorescently-conjugated BIOLEGEND anti-human CCR8 antibody at a single concentration. How it is done: To characterize the binding cite of the CCR8 antibodies, CCR8 antibodies were incubated with Raji-CCR8 cells in a dose-dependent manner in 96-well plates at 4° C. for 30 min. Unbound CCR8 antibodies were washed away and the cells were incubated with a fluorescently-conjugated human monoclonal anti-CCR8 antibody (commercially available) at a single concentration for 30 min at 37° C. Upon completion of the experiment, the binding of the commercially available monoclonal CCR8 antibody was assessed by Flow Cytometry.

Test [8] has as its target T4, mouse CCR8 expressed on 293T cells. Put plainly: flow cytometry, mouseCCR8-293T cells, fold geomean over secondary alone.
The target in test [9] is T6, Cynomolgus CCR8-ECD-Fc (cynomolgus monkey).
T6 construct: also called CyCCR8-ECD-Fc; Cynomolgus CCR8-Fc
T6 chain: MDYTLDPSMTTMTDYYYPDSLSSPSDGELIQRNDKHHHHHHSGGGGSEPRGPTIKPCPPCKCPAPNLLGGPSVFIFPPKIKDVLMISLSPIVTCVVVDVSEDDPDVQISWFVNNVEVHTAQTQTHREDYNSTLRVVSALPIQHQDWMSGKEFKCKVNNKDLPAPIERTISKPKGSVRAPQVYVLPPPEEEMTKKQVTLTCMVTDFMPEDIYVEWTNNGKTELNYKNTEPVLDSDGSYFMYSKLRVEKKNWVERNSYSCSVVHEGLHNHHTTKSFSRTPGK
The test can be described thus: binding to CyCCR8-ECD-huFc protein (so in the source), OD45-570nm (so in the source).

In test [10] the target is T1, Human CCR8-ECD-Fc. The test can be described thus: binding to HuCCR8-ECD-moFc protein (so in the source), OD45-570nm (so in the source).
Test [11] has as its target T4, mouse CCR8 expressed on 293T cells. Put plainly: flow cytometry, mouseCCR8-293T cells, fold geomean over secondary alone. This is another data set of the same source.
For test [12], the target named is T6, Cynomolgus CCR8-ECD-Fc. The test can be described thus: binding to CyCCR8-ECD-huFc protein (so in the source), OD45-570nm (so in the source).
The target of test [13] is T1, Human CCR8-ECD-Fc. Put plainly: binding to HuCCR8-ECD-moFc protein (so in the source), OD45-570nm (so in the source).

Like-named read-outs stand apart in the source and are kept apart here.

T3 sequence (P51685 whole entry): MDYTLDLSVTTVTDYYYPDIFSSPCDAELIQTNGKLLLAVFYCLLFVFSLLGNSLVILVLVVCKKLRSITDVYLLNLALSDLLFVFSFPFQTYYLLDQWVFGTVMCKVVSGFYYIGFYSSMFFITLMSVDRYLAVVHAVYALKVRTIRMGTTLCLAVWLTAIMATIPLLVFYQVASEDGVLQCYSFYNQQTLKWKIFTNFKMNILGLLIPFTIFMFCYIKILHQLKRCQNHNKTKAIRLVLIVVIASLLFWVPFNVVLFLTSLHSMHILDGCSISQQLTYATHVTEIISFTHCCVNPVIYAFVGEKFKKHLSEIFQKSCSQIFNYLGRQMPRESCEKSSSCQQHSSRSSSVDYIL
T2 sequence (G7NYJ2 entry or part of it): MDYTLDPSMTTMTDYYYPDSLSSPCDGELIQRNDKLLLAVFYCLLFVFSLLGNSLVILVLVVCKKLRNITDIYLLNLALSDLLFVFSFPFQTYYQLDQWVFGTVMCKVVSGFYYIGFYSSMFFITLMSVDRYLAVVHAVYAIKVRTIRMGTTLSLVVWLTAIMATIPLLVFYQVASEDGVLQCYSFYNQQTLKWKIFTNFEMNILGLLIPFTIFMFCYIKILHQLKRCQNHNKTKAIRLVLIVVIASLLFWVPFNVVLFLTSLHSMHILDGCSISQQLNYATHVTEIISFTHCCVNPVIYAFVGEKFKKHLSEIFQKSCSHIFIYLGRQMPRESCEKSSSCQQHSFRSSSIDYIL
T5 sequence (Q06481 32-763 limits assumed): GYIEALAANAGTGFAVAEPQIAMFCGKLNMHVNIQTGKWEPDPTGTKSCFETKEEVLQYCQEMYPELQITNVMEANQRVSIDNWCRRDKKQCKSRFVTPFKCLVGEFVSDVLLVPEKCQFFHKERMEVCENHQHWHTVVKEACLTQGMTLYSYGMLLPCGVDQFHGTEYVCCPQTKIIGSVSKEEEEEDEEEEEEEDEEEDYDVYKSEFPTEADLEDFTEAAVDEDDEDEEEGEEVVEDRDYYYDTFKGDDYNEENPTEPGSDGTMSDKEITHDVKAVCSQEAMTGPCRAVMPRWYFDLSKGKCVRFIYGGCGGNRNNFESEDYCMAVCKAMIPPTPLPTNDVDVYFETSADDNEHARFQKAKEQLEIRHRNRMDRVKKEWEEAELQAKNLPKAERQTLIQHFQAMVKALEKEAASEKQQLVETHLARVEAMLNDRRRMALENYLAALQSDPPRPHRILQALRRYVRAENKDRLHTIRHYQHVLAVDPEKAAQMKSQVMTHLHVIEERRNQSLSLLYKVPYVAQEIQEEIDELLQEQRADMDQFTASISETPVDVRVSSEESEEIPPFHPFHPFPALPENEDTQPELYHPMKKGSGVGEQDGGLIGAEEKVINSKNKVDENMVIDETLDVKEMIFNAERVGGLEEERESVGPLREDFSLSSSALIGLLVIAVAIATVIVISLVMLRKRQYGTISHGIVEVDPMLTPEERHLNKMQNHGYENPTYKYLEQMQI

B1: anti-CCR8-1 (antibody, human IgG1, V domains shown)
VH: QVQLVQSGAEVKKPGASVKVSCKASGYTFTSYYMHWVRQAPGQGLEWMGIINPSGGSTSYAQKFQGRVTMTRDTSTSTVYMELSSLRSEDTAVYYCARAVRNRFRFDYWGQGTLVTVSS
VL: QSALTQPASVSGSPGQSITISCTGTSSDVGSYNLVSWYQQHPGKAPKLMIYEVSKRPSGVSNRFSGSKSGNTASLTISGLQAEDEADYYCSSYAGSSTFVVFGGGTKLTVL
Regarding B1, the binding result with Human CCR8-ECD-Fc [1] was “binds”; in [5] it was “no binding (tested: 10 ug/ml)”; in test [6], “no binding (tested: 100 nM (top of the affinity axis))”. The Kd in test [2] is above 50 nM; in test [3], 0.41 nM. Besides, the “EC50 (read off the curve)” value in [4] is around 1 µg/mL. Also, the “IC50 (read off the curve)” value in test [7] is around 0.02 µg/mL.

B2: anti-CCR8-1-1 (antibody, V domains shown)
VH: QVQLVQSGAEVKKPGASVKVSCKASGYTFTSYYMHWVRQAPGQGLEWMGIINPSGGSTSYAQKFQGRVTMTRDTSTSTVYMELSSLRSEDTAVYYCARGVGNGFRFDYWGQGTLVT
VL: QSALTQPPSVSGSPGQSITISCTGTSSDVGTYNLVSWYQQHPGNAPKLMIYEVTKRPSGVSNRFSGSKSGNTATLTISGLQAEDEADYHCSSYAGSITHVVFGGGTKLTVL
notes: Parental-1 heavy chain with a shuffled lambda light chain; Expressed from a mammalian expression vector in CHO cells as human IgG
Turning to B2, the Kd was determined as 22.1 nM in test [2] and 1.01 nM in [3]. In addition, the figures for the binding result (in test [8]; with Cynomolgus CCR8-ECD-Fc [9]; with Human CCR8-ECD-Fc [10]) were “no binding (tested: 10 ug/ml)”, “binds” and “binds”, respectively.

B3: anti-CCR8-1-2 (antibody, V domains shown)
VH: QVQLVQSGAEVKKPGASVKVSCKASGYTFTSYYMHWVRQAPGQGLEWMGIINPSGGSTSYAQKFQGRVTMTRDTSTSTVYMELSSLRSEDTAVYYCARGVGNGFRFDYWGQGTLVT
VL: QSALTQPASVSGSPGQSITISCTGTSGDVGSYSLVSWYQHHPSRAPKLIIYEVNKRPSGVSDRFSGSKSGNTASLTITGLQAEDEAHYFCSSYTGNINLPVVFGGGTKLTVL
notes: Parental-1 heavy chain with a shuffled lambda light chain; Human IgG expressed in CHO cells
Turning to B3, in [3], the Kd was determined as 1.06 nM. For the same molecule, the figures for the binding result (in [11]; in the test with Cynomolgus CCR8-ECD-Fc [12]; with Human CCR8-ECD-Fc [13]) were “no binding (tested: 10 ug/ml)”, “binds” and “binds”, respectively.
